T1: APBA2_1, Q99767
T1 sequence (Q99767 563-664, limits assumed, looked up): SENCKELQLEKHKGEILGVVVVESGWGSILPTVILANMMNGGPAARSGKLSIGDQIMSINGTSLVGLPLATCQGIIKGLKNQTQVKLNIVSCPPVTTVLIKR

T2: DFNB31_3, Q9P202
T2 sequence (Q9P202 811-907, limits assumed, looked up): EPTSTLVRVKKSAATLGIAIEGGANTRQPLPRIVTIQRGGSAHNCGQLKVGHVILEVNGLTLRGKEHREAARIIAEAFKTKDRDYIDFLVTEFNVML

T3: DLG3_3, Q92796
T3 sequence (Q92796 374-475, limits assumed, looked up): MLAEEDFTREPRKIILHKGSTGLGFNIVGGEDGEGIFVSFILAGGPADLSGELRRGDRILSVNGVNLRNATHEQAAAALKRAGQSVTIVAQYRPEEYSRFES

T4: FRMPD1, Q5SYB0
T4 sequence (Q5SYB0 52-145, limits assumed, looked up): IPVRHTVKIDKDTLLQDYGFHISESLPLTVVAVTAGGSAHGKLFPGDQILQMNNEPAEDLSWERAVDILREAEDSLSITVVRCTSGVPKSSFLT

T5: GRIP1_2, Q9Y3R0
T5 sequence (Q9Y3R0 145-248, limits assumed, looked up): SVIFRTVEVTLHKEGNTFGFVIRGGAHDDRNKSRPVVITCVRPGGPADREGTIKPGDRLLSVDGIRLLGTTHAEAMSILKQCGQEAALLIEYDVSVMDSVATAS

T6: LNX2_3, Q8N448
T6 sequence (Q8N448 463-564, limits assumed, looked up): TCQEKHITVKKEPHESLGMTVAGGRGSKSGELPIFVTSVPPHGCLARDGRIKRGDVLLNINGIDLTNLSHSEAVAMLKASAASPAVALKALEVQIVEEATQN

T7: MPDZ_12, O75970
T7 sequence (O75970 1857-1958, limits assumed, looked up): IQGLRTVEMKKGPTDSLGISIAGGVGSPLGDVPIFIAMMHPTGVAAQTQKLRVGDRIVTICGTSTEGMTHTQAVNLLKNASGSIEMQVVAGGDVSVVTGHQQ

T8: MPDZ_5, O75970
T8 sequence (O75970 695-796, limits assumed, looked up): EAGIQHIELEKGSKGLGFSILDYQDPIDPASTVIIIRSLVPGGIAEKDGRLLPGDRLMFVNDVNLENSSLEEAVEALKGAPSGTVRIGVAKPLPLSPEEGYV

T9: PDZD2_2, O15018
T9 sequence (O15018 329-429, limits assumed, looked up): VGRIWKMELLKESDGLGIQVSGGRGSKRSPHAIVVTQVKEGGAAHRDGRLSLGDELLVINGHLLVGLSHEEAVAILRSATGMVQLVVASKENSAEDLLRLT

T10: PTPN13_1, Q12923
T10 sequence (Q12923 1088-1188, limits assumed, looked up): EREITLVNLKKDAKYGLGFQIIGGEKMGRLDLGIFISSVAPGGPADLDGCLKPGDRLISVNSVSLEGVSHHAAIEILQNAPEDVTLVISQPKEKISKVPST

T11: RAPGEF6, Q8TEU7
T11 sequence (Q8TEU7 525-625, limits assumed, looked up): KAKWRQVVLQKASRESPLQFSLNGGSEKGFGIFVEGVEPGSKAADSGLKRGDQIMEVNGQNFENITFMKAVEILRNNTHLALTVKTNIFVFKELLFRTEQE

T12: RHPN1, Q8TCX5
T12 sequence (Q8TCX5 508-602, limits assumed, looked up): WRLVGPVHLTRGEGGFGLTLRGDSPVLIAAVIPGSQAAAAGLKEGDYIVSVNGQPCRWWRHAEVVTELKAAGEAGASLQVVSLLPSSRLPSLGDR


Target: AHNAK1, Q09666
Assay: holdup assay
Set-up: key: below the threshold = too weak to quantify, mostly under pKd 3.1 to 4
Conditions: plain residues with an end cap or a label only (N-terminal biotin on a linker: ado-ado)

AHNAK1, Q09666, sequence (Q09666 4-100): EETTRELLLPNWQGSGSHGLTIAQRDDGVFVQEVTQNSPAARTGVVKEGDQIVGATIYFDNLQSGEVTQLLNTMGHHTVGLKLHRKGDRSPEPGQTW

Row | pKd | Binder
1 | below the threshold | SKENVQETQI [LRRC4B, Q9NT99]
2 | below the threshold | VNKSKLLTDV [KCNA1, Q09470]

Target: T1, APBA2_1, Q99767
Assay: holdup assay
Set-up: key: below the threshold = too weak to quantify, mostly under pKd 3.1 to 4
Conditions: plain residues with an end cap or a label only (N-terminal biotin on a linker: ado-ado)

Row | pKd | Binder
3 | below the threshold | SKENVQETQI [LRRC4B, Q9NT99]
4 | below the threshold | VNKSKLLTDV [KCNA1, Q09470]

Target: T2, DFNB31_3, Q9P202
Assay: holdup assay
Set-up: key: below the threshold = too weak to quantify, mostly under pKd 3.1 to 4
Conditions: plain residues with an end cap or a label only (N-terminal biotin on a linker: ado-ado)

Row | pKd | Binder
5 | 3.47 | SKENVQETQI [LRRC4B, Q9NT99]
6 | 3.56 | VNKSKLLTDV [KCNA1, Q09470]

Target: DLG2_2, Q15700
Assay: holdup assay
Set-up: key: below the threshold = too weak to quantify, mostly under pKd 3.1 to 4
Conditions: plain residues with an end cap or a label only (N-terminal biotin on a linker: ado-ado)

DLG2_2, Q15700, sequence (Q15700 189-283): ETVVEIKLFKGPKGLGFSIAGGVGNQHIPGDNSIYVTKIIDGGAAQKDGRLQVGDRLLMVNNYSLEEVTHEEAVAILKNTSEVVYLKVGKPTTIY

Row | pKd | Binder
7 | 4.47 | SKENVQETQI [LRRC4B, Q9NT99]
8 | 4.29 | VNKSKLLTDV [KCNA1, Q09470]

Target: T3, DLG3_3, Q92796
Assay: holdup assay
Set-up: key: below the threshold = too weak to quantify, mostly under pKd 3.1 to 4
Conditions: plain residues with an end cap or a label only (N-terminal biotin on a linker: ado-ado)

Row | pKd | Binder
9 | 3.68 | SKENVQETQI [LRRC4B, Q9NT99]
10 | below the threshold | VNKSKLLTDV [KCNA1, Q09470]

Target: T4, FRMPD1, Q5SYB0
Assay: holdup assay
Set-up: key: below the threshold = too weak to quantify, mostly under pKd 3.1 to 4
Conditions: plain residues with an end cap or a label only (N-terminal biotin on a linker: ado-ado)

Row | pKd | Binder
11 | below the threshold | SKENVQETQI [LRRC4B, Q9NT99]
12 | below the threshold | VNKSKLLTDV [KCNA1, Q09470]

Target: FRMPD2_3, Q68DX3
Assay: holdup assay
Set-up: key: below the threshold = too weak to quantify, mostly under pKd 3.1 to 4
Conditions: plain residues with an end cap or a label only (N-terminal biotin on a linker: ado-ado)

FRMPD2_3, Q68DX3, sequence (Q68DX3 1073-1166): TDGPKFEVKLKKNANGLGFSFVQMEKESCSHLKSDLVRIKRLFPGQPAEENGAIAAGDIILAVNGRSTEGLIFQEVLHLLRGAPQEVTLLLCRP

Row | pKd | Binder
13 | below the threshold | SKENVQETQI [LRRC4B, Q9NT99]
14 | below the threshold | VNKSKLLTDV [KCNA1, Q09470]

Target: T5, GRIP1_2, Q9Y3R0
Assay: holdup assay
Set-up: key: below the threshold = too weak to quantify, mostly under pKd 3.1 to 4
Conditions: plain residues with an end cap or a label only (N-terminal biotin on a linker: ado-ado)

Row | pKd | Binder
15 | below the threshold | SKENVQETQI [LRRC4B, Q9NT99]
16 | below the threshold | VNKSKLLTDV [KCNA1, Q09470]

Target: GRIP2_3, Q9C0E4
Assay: holdup assay
Set-up: key: below the threshold = too weak to quantify, mostly under pKd 3.1 to 4
Conditions: plain residues with an end cap or a label only (N-terminal biotin on a linker: ado-ado)

GRIP2_3, Q9C0E4, sequence (Q9C0E4 238-339): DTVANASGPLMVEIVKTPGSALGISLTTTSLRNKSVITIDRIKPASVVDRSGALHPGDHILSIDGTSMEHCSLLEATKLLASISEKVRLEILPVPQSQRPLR

Row | pKd | Binder
17 | below the threshold | SKENVQETQI [LRRC4B, Q9NT99]
18 | below the threshold | VNKSKLLTDV [KCNA1, Q09470]

Target: GRIP2_7, Q9C0E4
Assay: holdup assay
Set-up: key: below the threshold = too weak to quantify, mostly under pKd 3.1 to 4
Conditions: plain residues with an end cap or a label only (N-terminal biotin on a linker: ado-ado)

GRIP2_7, Q9C0E4, sequence (Q9C0E4 934-1023): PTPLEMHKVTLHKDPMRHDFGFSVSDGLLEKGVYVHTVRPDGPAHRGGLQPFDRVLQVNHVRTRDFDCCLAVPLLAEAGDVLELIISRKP

Row | pKd | Binder
19 | below the threshold | SKENVQETQI [LRRC4B, Q9NT99]
20 | below the threshold | VNKSKLLTDV [KCNA1, Q09470]

Target: HTRA2, O43464
Assay: holdup assay
Set-up: key: below the threshold = too weak to quantify, mostly under pKd 3.1 to 4
Conditions: plain residues with an end cap or a label only (N-terminal biotin on a linker: ado-ado)

HTRA2, O43464, sequence (O43464 355-458): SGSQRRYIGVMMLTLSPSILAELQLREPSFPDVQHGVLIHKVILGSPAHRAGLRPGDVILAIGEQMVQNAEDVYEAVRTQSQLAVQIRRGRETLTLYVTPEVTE

Row | pKd | Binder
21 | below the threshold | SKENVQETQI [LRRC4B, Q9NT99]
22 | below the threshold | VNKSKLLTDV [KCNA1, Q09470]

Target: Inadl_8, Q8NI35
Assay: holdup assay
Set-up: key: below the threshold = too weak to quantify, mostly under pKd 3.1 to 4
Conditions: plain residues with an end cap or a label only (N-terminal biotin on a linker: ado-ado)

Inadl_8, Q8NI35, sequence (Q8NI35 1425-1530): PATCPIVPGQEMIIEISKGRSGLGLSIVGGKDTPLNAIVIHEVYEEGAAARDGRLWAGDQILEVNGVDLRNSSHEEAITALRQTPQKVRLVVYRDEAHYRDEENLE

Row | pKd | Binder
23 | below the threshold | SKENVQETQI [LRRC4B, Q9NT99]
24 | 3.91 | VNKSKLLTDV [KCNA1, Q09470]

Target: LNX1_2, Q8TBB1
Assay: holdup assay
Set-up: key: below the threshold = too weak to quantify, mostly under pKd 3.1 to 4
Conditions: plain residues with an end cap or a label only (N-terminal biotin on a linker: ado-ado)

LNX1_2, Q8TBB1, sequence (Q8TBB1 371-470): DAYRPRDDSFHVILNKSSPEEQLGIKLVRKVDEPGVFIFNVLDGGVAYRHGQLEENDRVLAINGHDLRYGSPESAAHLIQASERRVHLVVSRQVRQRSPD

Row | pKd | Binder
25 | below the threshold | SKENVQETQI [LRRC4B, Q9NT99]
26 | below the threshold | VNKSKLLTDV [KCNA1, Q09470]

Target: T6, LNX2_3, Q8N448
Assay: holdup assay
Set-up: key: below the threshold = too weak to quantify, mostly under pKd 3.1 to 4
Conditions: plain residues with an end cap or a label only (N-terminal biotin on a linker: ado-ado)

Row | pKd | Binder
27 | below the threshold | SKENVQETQI [LRRC4B, Q9NT99]
28 | below the threshold | VNKSKLLTDV [KCNA1, Q09470]

Target: MAGI2_2, Q86UL8
Assay: holdup assay
Set-up: key: below the threshold = too weak to quantify, mostly under pKd 3.1 to 4
Conditions: plain residues with an end cap or a label only (N-terminal biotin on a linker: ado-ado)

MAGI2_2, Q86UL8, sequence (Q86UL8 410-522): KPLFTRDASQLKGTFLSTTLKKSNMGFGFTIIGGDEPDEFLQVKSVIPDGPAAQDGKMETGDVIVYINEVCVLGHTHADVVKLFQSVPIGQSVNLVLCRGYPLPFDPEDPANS

Row | pKd | Binder
29 | below the threshold | SKENVQETQI [LRRC4B, Q9NT99]
30 | 4.06 | VNKSKLLTDV [KCNA1, Q09470]

Target: T7, MPDZ_12, O75970
Assay: holdup assay
Set-up: key: below the threshold = too weak to quantify, mostly under pKd 3.1 to 4
Conditions: plain residues with an end cap or a label only (N-terminal biotin on a linker: ado-ado)

Row | pKd | Binder
31 | 3.48 | SKENVQETQI [LRRC4B, Q9NT99]
32 | below the threshold | VNKSKLLTDV [KCNA1, Q09470]

Target: T8, MPDZ_5, O75970
Assay: holdup assay
Set-up: key: below the threshold = too weak to quantify, mostly under pKd 3.1 to 4
Conditions: plain residues with an end cap or a label only (N-terminal biotin on a linker: ado-ado)

Row | pKd | Binder
33 | below the threshold | SKENVQETQI [LRRC4B, Q9NT99]
34 | below the threshold | VNKSKLLTDV [KCNA1, Q09470]

Target: NHERF4_1, Q86UT5-2
Assay: holdup assay
Set-up: key: below the threshold = too weak to quantify, mostly under pKd 3.1 to 4
Conditions: plain residues with an end cap or a label only (N-terminal biotin on a linker: ado-ado)

NHERF4_1, Q86UT5-2, sequence (Q86UT5 other isoform, or with tags, fused parts or gaps): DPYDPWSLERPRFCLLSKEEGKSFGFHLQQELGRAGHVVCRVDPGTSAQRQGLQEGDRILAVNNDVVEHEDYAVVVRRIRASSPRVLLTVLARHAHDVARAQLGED

Row | pKd | Binder
35 | below the threshold | SKENVQETQI [LRRC4B, Q9NT99]
36 | below the threshold | VNKSKLLTDV [KCNA1, Q09470]

Target: NOS1, P29475
Assay: holdup assay
Set-up: key: below the threshold = too weak to quantify, mostly under pKd 3.1 to 4
Conditions: plain residues with an end cap or a label only (N-terminal biotin on a linker: ado-ado)

NOS1, P29475, sequence (P29475 9-101): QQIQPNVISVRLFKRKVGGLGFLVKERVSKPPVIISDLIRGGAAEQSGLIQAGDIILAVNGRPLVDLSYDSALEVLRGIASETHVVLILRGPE

Row | pKd | Binder
37 | 3.85 | SKENVQETQI [LRRC4B, Q9NT99]
38 | below the threshold | VNKSKLLTDV [KCNA1, Q09470]

Target: T9, PDZD2_2, O15018
Assay: holdup assay
Set-up: key: below the threshold = too weak to quantify, mostly under pKd 3.1 to 4
Conditions: plain residues with an end cap or a label only (N-terminal biotin on a linker: ado-ado)

Row | pKd | Binder
39 | 3.97 | SKENVQETQI [LRRC4B, Q9NT99]
40 | 4.07 | VNKSKLLTDV [KCNA1, Q09470]

Target: T10, PTPN13_1, Q12923
Assay: holdup assay
Set-up: key: below the threshold = too weak to quantify, mostly under pKd 3.1 to 4
Conditions: plain residues with an end cap or a label only (N-terminal biotin on a linker: ado-ado)

Row | pKd | Binder
41 | below the threshold | SKENVQETQI [LRRC4B, Q9NT99]
42 | below the threshold | VNKSKLLTDV [KCNA1, Q09470]

Target: T11, RAPGEF6, Q8TEU7
Assay: holdup assay
Set-up: key: below the threshold = too weak to quantify, mostly under pKd 3.1 to 4
Conditions: plain residues with an end cap or a label only (N-terminal biotin on a linker: ado-ado)

Row | pKd | Binder
43 | 3.52 | SKENVQETQI [LRRC4B, Q9NT99]
44 | 3.53 | VNKSKLLTDV [KCNA1, Q09470]

Target: T12, RHPN1, Q8TCX5
Assay: holdup assay
Set-up: key: below the threshold = too weak to quantify, mostly under pKd 3.1 to 4
Conditions: plain residues with an end cap or a label only (N-terminal biotin on a linker: ado-ado)

Row | pKd | Binder
45 | 5.1 | SKENVQETQI [LRRC4B, Q9NT99]
46 | 3.96 | VNKSKLLTDV [KCNA1, Q09470]

Target: SNX27, Q96L92
Assay: holdup assay
Set-up: key: below the threshold = too weak to quantify, mostly under pKd 3.1 to 4
Conditions: plain residues with an end cap or a label only (N-terminal biotin on a linker: ado-ado)

Row | pKd | Binder
47 | 5.55 | SKENVQETQI [LRRC4B, Q9NT99]
48 | below the threshold | VNKSKLLTDV [KCNA1, Q09470]

Source: paper PMC9482650, “Quantitative fragmentomics allow affinity mapping of interactomes” (Nature Communications, 2022)
